From patent US20130022590, “Compositions Comprising Zinc Finger Domains and Uses Therefor” (published 2013)
Changes are numbered by the printed parent chain.

Experiments:
ZRANB2-F12 [1] = target: T1, ZRANB2-F12 (Homo sapiens, UniProt O95218 O95218:1-95); assay: EMSA; dsDNA control; conditions: tags: GST removed for FA, gel shift and SPR; label: 32P
Protocol: (§1) Gel Shift assays e.g., FIGS. 1B, 32A, were carried out using standard protocols. In brief, oligonucleotides were 5′ end-labelled with T4 polynucleotide kinase and annealed. Binding reactions were set up in a volume of 30 μL and contained a constant concentration of ³²P-labeled probe (0.1 pmol) and increasing concentrations of F12, in a buffer consisting of 10 mM Mops (pH 7.2), 50 mM KCl, 5 mM MgCl₂, 1 mM DTT, 0.03 mg/mL heparin, and 5% glycerol. Binding reactions were set up on ice and incubated at 4° C. for 30 min, after which time 15 μL of each sample was loaded onto a prerun 8% native polyacrylamide gel made up in 0.5× Tris-borate buffer, and electrophoresed (250V, 1 h, 4° C.). The oligonucleotide sequence used for gel shift experiments was […] (SEQ ID NO: 28); the site was mutated by changing the central GGU to CUG.
(§2) To determine whether the AGGUAA motif was sufficient for binding, the binding of the double finger construct F12 to a 17-nt RNA oligonucleotide containing a single AGGUAA motif was tested as described in Section 1.4 above with dsDNA, ssDNA, and dsRNA also tested as controls. […] Mutation of the central GGU, which is the most highly-conserved element in the SELEX consensus to CUG, abrogated the interaction, showing that the interaction is sequence specific (FIG. 1B).

ZRANB2-F12 [2] = target: T1, ZRANB2-F12; assay: SPR; immobilised RNA; 750 nM F12; 10 mM phosphate pH 7.2, 50 mM NaCl, 25 C; conditions: tags: GST removed for FA, gel shift and SPR; label: 5'-biotin
Protocol: (§3) Competition binding experiments were carried out by flowing a solution of F12 over a streptavidin chip coated with a biotinylated ssRNA oligonucleotide (containing the sequence AGGUAA) in the presence of an unlabeled competitor oligonucleotide.
(§4) Binding experiments were performed in triplicate at 25° C. on a BIACORE 3000 (Biacore). A 5′ biotin-labeled RNA oligonucleotide containing the 5′ splice site from exon 3 of the Tra2β minigene ([…]; SEQ ID NO: 29) was purified by size exclusion chromatography (Superdex 75), and unlabeled competitor oligonucleotides i.e., […] from exon 1 (SEQ ID NO: 30), […] from exon 2 (SEQ ID NO: 31), and […] from exon 3 (SEQ ID NO: 32) were used without further purification. Protein and RNA samples were dialysed into 10 mM sodium phosphate (pH 7.2), 50 mM NaCl, 1 mM DTT, and 0.005% NP20 and filtered. The biotinylated RNA was heated to 65° C. for 5 min, cooled on ice, and then immobilized onto a streptavidin-coated sensor chip to a total of approximately 160 relative units. Solutions of 750 nM F12 in the presence of 1 molar equivalent of each competitor RNA were injected in random order over the sensor chip (at a flow rate of 20 μL/min for 120 sec) and allowed to undergo a 120-sec dissociation time; a further 300-sec interval was allowed between injections. Data were analyzed by using BIA Evaluation software (Biacore).

ZRANB2-F2 R82Q [3] = target: T2, ZRANB2-F2 R82Q (Homo sapiens, UniProt O95218 O95218:65-95, R82Q); assay: FP; no preference between G and A at position 3; conditions: label: 5'-fluorescein
T2 chain: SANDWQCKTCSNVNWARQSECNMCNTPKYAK
Protocol: (§5) Fluorescence Anisotropy titrations e.g., as shown in FIGS. 1D-F, 8 and 35, were carried out using standard protocols. In brief, 5′-Fluorescein-labeled RNA oligonucleotides were quantified by A₂₆₀, correcting for fluorescein absorbance by using A₄₉₃. For single-site experiments, the sequence […] (SEQ ID NO: 28), or single base mutants thereof, was used. For double-site experiments, two AGGUAA sites were separated by different length sequences as indicated, and the total oligonucleotide lengths were kept constant by the symmetrical addition of adenines to each end. […] Protein was titrated into this starting solution and anisotropy values measured on a Cary Eclipse fluorescence spectrophotometer fitted with manual polarizer and long-pass filters set to 475 and 515 nm for excitation and emission, respectively. […] Association constants were determined by nonlinear least squares regression analysis using a 1:1 binding model.
(§6) To determine whether changing arginine-82 (R82) would affect the binding preference of ZRANB2-F2 from GGU to GAU, the point mutation R82Q in ZNF 2 of ZRANB2 was made and the ability of both the wild type (W) protein and the R82Q mutant to bind to AGGUAA and AGAUAA was assessed by fluorescence anisotropy binding assays as described previously in Example 1.

ZRANB2-F2 (untagged) = target: T3, ZRANB2-F2 (untagged) (Homo sapiens, UniProt O95218 O95218:65-95); assay: 15N-HSQC titration, 1:1 complex
T3 chain: T2 chain with Q18R
Protocol: For RNA titrations, deprotected RNA oligonucleotides i.e., having the sequence AGGUAA, […] (SEQ ID NO: 25), or […] (SEQ ID NO: 26) and the appropriate protein were dialyzed into 10 mM Mops (pH 7.2) and 0.5 mM DTT. Protein and RNA concentrations were calculated from A₂₈₀ and A₂₆₀, respectively. Final concentrations of complexes after titrations were typically approximately 0.1-0.5 mM. Assignments of the F2:RNA complex (1:1 or 1:1.2 molar ratio) were made at 25° C. as described above.
The inventors then carried out chemical-shift perturbation experiments, titrating short (6 or 10 nt) RNA oligonucleotides containing a single AGGUAA motif into ¹⁵N-labeled F2.

ZRANB2-F12 [4] = target: T1, ZRANB2-F12; assay: FP; higher affinity than shorter spacings; value in figure only; conditions: tags: GST removed for FA, gel shift and SPR; label: 5'-fluorescein
Protocol: as §5
The importance of the spacing between AGGUAA motifs was assessed by measuring binding of F12 to double sites that were separated by −1 to 8 nt (where −1 denotes the sequence […] SEQ ID NO: 33; FIG. 1E, lanes 5-10).

ZRANB2-F12 [5] = target: T1, ZRANB2-F12; assay: EMSA; interaction abrogated; conditions: tags: GST removed for FA, gel shift and SPR; label: 32P
Protocol: as §1, §2

ZRANB2-F12 [6] = target: T1, ZRANB2-F12; assay: EMSA; dsRNA control; conditions: tags: GST removed for FA, gel shift and SPR; label: 32P
Protocol: as §1, §2

ZRANB2-F1 = target: T4, ZRANB2-F1 (Homo sapiens, UniProt O95218 O95218:1-45); assay: FP; GST-F1; 10 mM Tris pH 8.0, 50 mM KCl, 5 mM MgCl2, heparin, 25 C; conditions: tags: GST fusion; label: 5'-fluorescein (FA) or 32P (gel shift)
T4 chain: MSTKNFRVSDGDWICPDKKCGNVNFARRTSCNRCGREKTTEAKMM
Protocol: as §5
Constructs of the two individual domains, F1 (FIG. 2, residues 1-45) and F2 (FIG. 2, residues 65-95), were cloned expressed and purified as GST fusions described in section 1.2 above, and tested their ability to bind ssRNA by fluorescence anisotropy as described in section 1.5 above, using a ssRNA oligonucleotide bearing a 5′ fluorescein tag and containing a single AGGUAA site.

ZRANB2-F2 R82Q [7] = target: T2, ZRANB2-F2 R82Q; assay: FP; conditions: label: 5'-fluorescein (FA) or 32P (gel shift)
Protocol: as §5, §6

ZRANB2-F2 = target: T5, ZRANB2-F2 (Homo sapiens, UniProt O95218 O95218:65-95); assay: FP; GST-F2; 10 mM Tris pH 8.0, 50 mM KCl, 5 mM MgCl2, heparin, 25 C; conditions: tags: GST fusion (FA); label: 5'-fluorescein (FA) or 32P (gel shift)
T5 chain: T2 chain with Q18R
Protocol: (§7) Fluorescence Anisotropy titrations e.g., as shown in FIGS. 1D-F, 8 and 35, were carried out using standard protocols. In brief, 5′-Fluorescein-labeled RNA oligonucleotides were quantified by A₂₆₀, correcting for fluorescein absorbance by using A₄₉₃. For single-site experiments, the sequence […] (SEQ ID NO: 28), or single base mutants thereof, was used. For double-site experiments, two AGGUAA sites were separated by different length sequences as indicated, and the total oligonucleotide lengths were kept constant by the symmetrical addition of adenines to each end. The anisotropy titrations were performed with a starting RNA concentration of 50 nM in a buffer comprising either 10 mM Tris (pH 8.0), 50 mM KCl, 5 mM MgCl₂, 0.05 mg/mL heparin, and 1 mM DTT (for GST fusion constructs) or 10 mM Mops (pH 7.3), 50 mM NaCl, 0.05 mg/mL heparin, and 1 mM DTT (for ZRANB2-F12). RNasin (Promega) was also added to the protein solution to a concentration of 2 units/μL. Protein was titrated into this starting solution and anisotropy values measured on a Cary Eclipse fluorescence spectrophotometer fitted with manual polarizer and long-pass filters set to 475 and 515 nm for excitation and emission, respectively. […] Association constants were determined by nonlinear least squares regression analysis using a 1:1 binding model.

ZRANB2-F2 K72A = target: T6, ZRANB2-F2 K72A (Homo sapiens, UniProt O95218 O95218:65-95, K72A); assay: FP; much smaller change in affinity; conditions: label: 5'-fluorescein (FA) or 32P (gel shift)
T6 chain: T2 chain with K8A, Q18R
Protocol: as §7, with “model. […]” for “model.”

ZRANB2-F2 T73A = target: T7, ZRANB2-F2 T73A (Homo sapiens, UniProt O95218 O95218:65-95, T73A); assay: FP; much smaller change in affinity; conditions: label: 5'-fluorescein (FA) or 32P (gel shift)
T7 chain: T2 chain with T9A, Q18R
Protocol: as §7, with “model. […]” for “model.”

ZRANB2-F12 [8] = target: T1, ZRANB2-F12; assay: EMSA; 10 mM Mops pH 7.2, 50 mM KCl, 5 mM MgCl2, heparin, 4 C; conditions: tags: GST removed for FA, gel shift and SPR; label: 5'-fluorescein (FA) or 32P (gel shift)
Protocol: as §1, §2

ZRANB2-F12 [9] = target: T1, ZRANB2-F12; assay: competition; strongest competitor in SPR competition; conditions: tags: GST removed for FA, gel shift and SPR
Protocol: as §3
as §4, with “software (Biacore). […]” for “software (Biacore).”

ZRANB2-F12 [10] = target: T1, ZRANB2-F12; assay: 15N-HSQC titration; conditions: tags: GST removed for FA, gel shift and SPR; label: 5'-fluorescein
Protocol: In brief, F2 and F12 were dialysed into 25 mM potassium phosphate (pH 7.0), 25 mM NaCl, and 0.5 mM DTT and concentrated to 0.4-1 mM. All spectra were recorded on a Bruker Avance 600 spectrometer equipped with a cryoprobe. 1H, 15N, and 13C assignments were obtained from HNCACB, CB-CA(CO)NH, HCCH-TOCSY, NOESY, and TOCSY spectra acquired at 2° C., 5° C., or 25° C. Dihedral angle restraints were obtained by analysis of an HNHA spectrum as previously described in Vuister G. W. and Bax A. 1993 J Am Chem Soc 115: 7772-7777. NMR data were processed by using XWINNMR/Topspin (Bruker) and analyzed with SPARKY (T. D. Goddard and D. G. Kneller, University of California, San Francisco). The structure of F2 was calculated from NOE and Ø angle constraints (e.g., FIGS. 5 and 9C) by using a protocol as described in Plambeck C. A., et al., 2003 J Biol Chem 278: 22805-22811.
¹⁵N-HSQC titrations were also carried out by using the double finger construct (F12; residues 1-95) and the double site oligonucleotide. AGGUAAAGGUAA (SEQ ID NO: 26). […] This titration (FIG. 9D) gave rise to the same pattern of chemical-shift changes as the two single-finger experiments. Only 3-4 new signals appeared, most likely from linker residues.

B1: 17-nt site as dsDNA (dsDNA)
DNA 1: GCAACCAGGTAAAGTCT
DNA 2: AGACTTTACCTGGTTGC
modifications: [none]
Q: Does B1 bind (ZRANB2-F12 [1])?
A: no binding

Q: Does CUCUGAAUCUAGGUAAGAAAG (ssRNA) [Tra2-beta exon 3 5' splice site] bind (ZRANB2-F12 [2])?
A: binds

Q: How did the binding signal (ZRANB2-F2 R82Q [3]) turn out when AGAUAA (ssRNA) [AGAUAA (3A)] was run?
A: ~2 fold higher than WT F2 on same RNA

Q: Does CCAGGUAAAG (ssRNA) [10-nt AGGUAA RNA] bind (ZRANB2-F2 (untagged))?
A: binds

Q: Does AGGUAAAAAAAAGGUAA (ssRNA, [none]) [double site spacing 5 (penta-adenine)] bind (ZRANB2-F12 [4])?
A: binds

Q: Does GCAACCACUGAAAGUCU (ssRNA, [none]) [17-nt CUG mutant ssRNA] bind (ZRANB2-F12 [5])?
A: no binding

B2: 17-nt site as dsRNA (dsRNA)
RNA 1: GCAACCAGGUAAAGUCU
RNA 2: AGACUUUACCUGGUUGC
Q: Does B2 bind (ZRANB2-F12 [6])?
A: no binding

Q: What does the source list for GCAACCAGGUAAAGUCU (ssRNA) [17-nt AGGUAA ssRNA]?
A: Ka (ZRANB2-F1): 3e+06 M⁻¹; binding signal (ZRANB2-F2 R82Q [7]): ~2 fold lower than WT F2; Ka (ZRANB2-F2): 1e+06 M⁻¹; binding result (ZRANB2-F2 K72A): binds; binding result (ZRANB2-F2 T73A): binds; binding result (ZRANB2-F12 [8]): binds

Q: Does CUCUGAAUCUAGGUAAGAAAG (ssRNA) [Tra2-beta exon 3 5' splice site competitor] bind (ZRANB2-F12 [9])?
A: binds

Q: Does AGGUAAAGGUAA (ssRNA) [double site AGGUAAAGGUAA] bind (ZRANB2-F12 [10])?
A: binds
